Test results: paper doi:10.1101/2021.12.01.470723
Read-outs that look alike come from different tables or passages of the source.

How the values were obtained:
Asp105 = Asp105 (UniProt position 105, GLVVYDYQQLL); experiment: CD spectroscopy; details: 25 °C; Free folded domain, 4.2-10 µmol/L protein
[1] = target: rh wildtype Bri2 BRICHOS (human) (UniProt Q9Y287); experiment: SEC
[2] = target: rh wildtype Bri2 BRICHOS (human) (UniProt Q9Y287); experiment: SEC; remark: listed apart in the source

| stoichiometry N [1] | stoichiometry N [2] | Substance | pKa (Asp105) |
| --- | --- | --- | --- |
|  |  | Prosurfactant protein C (proSP-C) BRICHOS domain, wild type (Homo sapiens) | about 6.1 |
| 2 | 2 | rh wildtype Bri2 BRICHOS (from UniProt Q9Y287 113-231) (domain or fragment) |  |
